Our source for the Kd values is patent publication US20080227735, “Aptamers Selected From Live Tumor Cells and the Use Thereof” (COMMISSARIAT A L'ENERGIE ATOMIQUE, published 2008).

For orientation: Kd means the constant that tells how readily two partners part at equilibrium.

In data set [1] the target is T1, Ret receptor tyrosine kinase C634Y (RetC634Y) on PC12 MEN 2A cells (Homo sapiens, UniProt P07949 P07949:29-1114, C634Y). As to the kind of experiment: whole PC12 MEN 2A cells, RPMI, 37C, 10 min, polyinosine competitor; target on cell not directly proven; 102 ± 58 x1000 targets/cell. To be noted: tags: stably transfected in rat PC12 cells; constitutive homodimer; chain copies: 2 (inferred); label: 5'-32P; stem-loop with internal loops (predicted). As for the experimental part: (§1) The binding of the various aptamers (or of the initial pool, as control) to the PC12 MEN 2A cells is carried out in 24-well plates (experiments carried out in triplicate), with 5′-³²P-labeled RNA. 10⁵ cells per well are incubated with various concentrations of aptamers in 200 μl of RPMI for 10 min at 37° C. in the presence of 100 μg/ml of polyinosine, as non-specific competitor. After several washes, the bound sequences are recovered in 350 μl of 0.6% SDS and the amount of radioactivity recovered is related to the number of cells by measuring the protein content in each well.

The target in data set [2] is T1, Ret receptor tyrosine kinase C634Y …. As to the kind of experiment: whole PC12 MEN 2A cells, RPMI, 37C; 102 ± 25 x1000 targets/cell; competes with D4 (p188). The settings on record: tags: stably transfected in rat PC12 cells; constitutive homodimer; chain copies: 2 (inferred); label: 5'-32P. The method, then: as §1
The target is the same in data set [3]. Briefly: whole PC12 MEN 2A cells, RPMI, 37C, 10 min, polyinosine; 110 ± 47 x1000 targets/cell; no binding to parental PC12, NBTII or HeLa cells lacking Ret. To be noted: tags: stably transfected in rat PC12 cells; constitutive homodimer; chain copies: 2 (inferred); stem-loop with internal loops (predicted). The method, then: as §1

T1 sequence (P07949 29-1114 C634Y, one chain of several): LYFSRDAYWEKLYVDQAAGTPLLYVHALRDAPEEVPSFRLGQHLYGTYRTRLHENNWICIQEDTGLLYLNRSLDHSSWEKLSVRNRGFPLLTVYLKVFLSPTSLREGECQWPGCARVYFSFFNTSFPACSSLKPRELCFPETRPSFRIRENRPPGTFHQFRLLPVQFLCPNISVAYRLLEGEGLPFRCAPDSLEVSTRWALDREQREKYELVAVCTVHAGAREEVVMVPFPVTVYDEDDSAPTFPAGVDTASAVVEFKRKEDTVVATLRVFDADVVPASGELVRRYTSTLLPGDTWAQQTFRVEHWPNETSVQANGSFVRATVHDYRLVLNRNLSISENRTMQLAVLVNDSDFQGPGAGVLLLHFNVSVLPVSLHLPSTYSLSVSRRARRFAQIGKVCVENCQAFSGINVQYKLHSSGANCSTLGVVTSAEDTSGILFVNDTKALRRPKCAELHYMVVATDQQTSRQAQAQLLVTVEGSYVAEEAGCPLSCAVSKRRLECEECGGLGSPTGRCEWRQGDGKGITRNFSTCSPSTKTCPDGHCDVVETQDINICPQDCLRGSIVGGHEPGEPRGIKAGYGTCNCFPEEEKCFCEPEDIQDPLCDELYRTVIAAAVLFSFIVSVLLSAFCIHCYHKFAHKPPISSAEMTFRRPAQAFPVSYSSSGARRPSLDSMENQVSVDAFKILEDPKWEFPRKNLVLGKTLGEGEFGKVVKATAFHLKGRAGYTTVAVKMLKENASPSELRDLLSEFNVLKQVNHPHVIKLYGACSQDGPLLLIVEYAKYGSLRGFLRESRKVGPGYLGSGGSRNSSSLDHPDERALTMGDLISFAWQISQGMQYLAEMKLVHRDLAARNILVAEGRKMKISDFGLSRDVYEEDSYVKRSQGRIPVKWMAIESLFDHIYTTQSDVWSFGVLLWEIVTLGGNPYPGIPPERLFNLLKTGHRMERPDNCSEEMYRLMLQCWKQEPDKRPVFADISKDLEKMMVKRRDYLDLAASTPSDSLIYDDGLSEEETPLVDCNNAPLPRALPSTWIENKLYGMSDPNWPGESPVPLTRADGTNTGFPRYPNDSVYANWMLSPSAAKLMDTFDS

B1: D24 (ssRNA)
RNA: GGGAGACAAGAAUAAACGCUCAAGCGGUAUGUAGGGAAUAGCACUUUUUUUGCGUAUACCUACACCGCAGCGAACGACAGGAGGCUCACAACAGGA
modifications: 2'-F pyrimidines (all C and U)
Consider B1, for which the Kd in data set [1] is 32 nM.

B2: D12 (ssRNA)
RNA: GGGAGACAAGAAUAAACGCUCAAGGGCUUCAUAAGCUACACCGGCCAACGCAGAAAUGCCUUAAGCCCGAGUUAACGACAGGAGGCUCACAACAGGA
modifications: 2'-F pyrimidines (all C and U)
On to B2, for which the Kd in data set [2] turned out to be 67 nM.

B3: D4 (ssRNA)
RNA: GGGAGACAAGAAUAAACGCUCAAGCGCGGGAAUAGUAUGGAAGGAUACGUAUACCGUGCAAUCCAGGGCAACGAACGACAGGAGGCUCACAACAGGA
modifications: 2'-F pyrimidines (all C and U)
Turning to B3, the Kd in data set [3] was 35 nM.
